Among the data in paper PMC3169405 are stoichiometry N values, retold here.

As usually defined, the stoichiometry N is the number of molecules, sites or subunits per partner or assembly.

The test concerns the target Bartonella henselae Nudix hydrolase BH02020 (Bh-MutT) (Bartonella henselae strain Houston-1). In words: SEC; Superdex75 size-exclusion column, retention time 68 min; 21-residue N-terminal tag present.

With “Bartonella henselae Nudix hydrolase BH02020 (Bh-MutT) (enzyme)”, the stoichiometry N is 2.
